Assay results published in US20110286981A1 (ZEALAND PHARMA A S, published 2011).

B1: L006-0082 (peptide)
peptide: H-HSQGTFTSDYSKYLDERRAQDFIEWLLSA-NH2
B2: L006-0093 (peptide)
peptide: H-HSQGTFTSDYSKYLDDRRARDFIDWLLSA-NH2
B3: L006-0084 (peptide)
peptide: H-HSQGTFTSDYSKYLDERRAKDFIQWLLSA-NH2
B4: L006-0138 (peptide)
peptide: H-HSQGTFTSDYSKYLDERRAKDFIEWLLRA-NH2
B5: L006-0129 (peptide)
peptide: H-HSQGTFTSDYSKYLDERRAKDFIDWLLSA-NH2
B6: L006-0108 (peptide)
peptide: H-HSQGTFTSDYSKYLDERAAKDFIEWLLSA-NH2
B7: L006-0136 (peptide)
peptide: H-HSQGTFTSDYSKYLDERRAKDFIEWLLAA-NH2
B8: L006-0090 (peptide)
peptide: H-HSQGTFTSDYSKYLDSRRAQDFIEWLLSA-NH2
B9: L006-0128 (peptide)
peptide: H-HSQGTFTSDYSKYLDERRAKDFIRWLLSA-NH2
B10: L006-0081 (peptide)
peptide: H-HSQGTFTSDYSKYLDSRRAKDFIEWLLSA-NH2
B11: L006-0094 (peptide)
peptide: H-HSQGTFTSDYSKYLDKRRAEDFIKWLLSA-NH2

Columns and labels:
[1] = target: human glucagon-like peptide 1 receptor (human, UniProt P43220 24-463); test: cell-based or functional assay
[2] = target: human glucagon receptor (human, UniProt P47871 26-477); test: cell-based or functional assay

Chain of human glucagon-like peptide 1 receptor (P43220 24-463): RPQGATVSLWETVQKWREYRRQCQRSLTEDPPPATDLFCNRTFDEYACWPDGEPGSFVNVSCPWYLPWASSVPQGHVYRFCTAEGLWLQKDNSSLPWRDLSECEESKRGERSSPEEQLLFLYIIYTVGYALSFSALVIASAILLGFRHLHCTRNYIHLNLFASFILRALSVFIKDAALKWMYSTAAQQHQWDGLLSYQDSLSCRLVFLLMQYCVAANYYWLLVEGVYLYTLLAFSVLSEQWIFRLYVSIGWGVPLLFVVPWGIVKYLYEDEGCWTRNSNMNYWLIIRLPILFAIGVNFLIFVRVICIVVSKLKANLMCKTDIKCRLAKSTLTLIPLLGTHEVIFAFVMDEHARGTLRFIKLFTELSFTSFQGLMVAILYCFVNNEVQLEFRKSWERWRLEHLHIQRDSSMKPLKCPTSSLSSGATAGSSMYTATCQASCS

Row | Binder | GLP-1R EC50 (cAMP formation in HEK293 cells expressing human GLP-1-R) [1] [nmol] | GLUR EC50 (cAMP formation in HEK293 cells expressing human Glucagon-R) [2] [nmol]
1 | B1 | 0.09 | 
2 | B2 | 0.07 | 0.1
3 | B3 | 0.07 | 0.13
4 | B4 | 0.29 | 0.38
5 | B5 | 0.2 | 0.24
6 | B6 | 0.53 | 0.81
7 | B7 | 0.22 | 0.33
8 | B8 | 0.15 | 0.22
9 | B9 | 0.16 | 0.22
10 | B10 | 0.14 | 0.23
11 | B11 | 0.16 | 0.25
